Molecular target: H-Ras, P01112
Sequence (P01112 whole entry, looked up): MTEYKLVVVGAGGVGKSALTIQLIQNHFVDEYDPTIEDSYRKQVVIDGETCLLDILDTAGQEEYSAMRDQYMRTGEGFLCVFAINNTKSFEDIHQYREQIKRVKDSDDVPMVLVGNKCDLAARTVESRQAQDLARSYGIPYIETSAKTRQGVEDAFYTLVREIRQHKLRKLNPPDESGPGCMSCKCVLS

| Protein | GTPase activity of H-Ras (GAP assay) |
| --- | --- |
| Drosophila NF1 catalytic domain (amino acids 1,235-1,614) bacterial fusion protein (protein) TEFDTLAETVLADRFEQLVQLVTMISDKGELPIAMALANVVTTSQMDELARVLVTLFDAKHLLSPLLWNMFYREVEVSDCMQTLFRGNSLGSKIMAFCFKIYGASYLQMLLEPLIRPLLDEEEETCFEVDPARLDPTEDIEQHRNNLIALTQKVFDAIINSSDRFPPQLRSMCHCLYQVLSKRFPNLLQNNIGAVGTVIFLRFINPAIVSPQELGIVDKQVHSSAKRGLMLMSKILQNIANHVEFSKEQHMLCFNDFLRDHFEAGRRFFIQIASDCETVDQTSHSMSFISDANVLALHRLLWTHQEKIGDYLSSSRDHKAVGRRPFDKMATLLAYLGPPEHKPVDSHMMFSSYARWSSIDMSSTNFEEIMVKHQMHEKEE | All three fusion proteins stimulated the GTPase activity of H-Ras |
| human p120GAP catalytic domain fusion protein (protein) MEKIMPEEEYSEFKELILQKELHVVYALSHVCGQDRTLLASILLRIFLHEKLESLLLCTLNDREISMEDEATTLFRATTLASTLMEQYMKATATQFVHHALKDSILKIMESKQSCELSPSKLEKNEDVNTNLTHLLNILSELVEKIFMASEILPPTLRYIYGCLQKSVQHKWPTNTTMRTRVVSGFVFLRLICPAILNPRMFNIISDSPSPIAARTLILVAKSVQNLANLVEFGAKEPYMEGVNPFIKSNKHRMIMFLDELGNVPELPDTTEHSRTDLSRDLAALHEICVAHSDELRTLSNERGAQQHVLKKLLAITELLQQKQNQYTKTNDVR | All three fusion proteins stimulated the GTPase activity of H-Ras |

Source: patent publication US6365126
